Test results taken from US6790646B2, “Mutants of monoamine oxidase B” (Research Development Foundation, priority 1998, dated 2004).

T1: MAO B (Homo sapiens, UniProt P27338, E427Q)
T1 construct: expressed in transfected cells; host or cells: COS-7
T1 sequence (P27338 2-520 E427Q): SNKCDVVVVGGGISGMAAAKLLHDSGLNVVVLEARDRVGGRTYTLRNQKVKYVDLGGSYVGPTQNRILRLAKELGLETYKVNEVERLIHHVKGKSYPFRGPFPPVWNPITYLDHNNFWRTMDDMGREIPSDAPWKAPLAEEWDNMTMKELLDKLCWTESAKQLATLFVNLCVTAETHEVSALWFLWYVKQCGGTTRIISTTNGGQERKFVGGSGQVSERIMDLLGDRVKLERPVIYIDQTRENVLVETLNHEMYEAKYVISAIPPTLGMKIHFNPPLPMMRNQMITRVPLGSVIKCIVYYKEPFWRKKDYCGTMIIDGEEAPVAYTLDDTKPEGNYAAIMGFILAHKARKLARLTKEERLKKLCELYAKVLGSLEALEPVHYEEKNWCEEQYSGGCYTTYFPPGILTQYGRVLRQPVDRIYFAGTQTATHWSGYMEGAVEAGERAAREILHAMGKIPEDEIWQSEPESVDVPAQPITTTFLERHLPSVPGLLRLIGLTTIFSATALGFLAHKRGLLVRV


Tests used:
MAO B [1] = experiment: Kinetic analysis of wild-type and mutant MAO B with [14C]benzylamine substrate (transfected COS-7 cell homogenates); type: biochemical, human; conditions: for Kcat / Km / Vmax: pH 7.5, 37° C., apparent, mean + S.E.M., n=3; for Kcat reduced by: versus wild-type; for activity relative to wild-type: activity too low to determine kinetic parameters
Procedure: (§1) The wild-type and mutant MAO B enzymes were expressed in mammalian COS-7 cells, and the enzymatic properties of the native enzyme and its mutant enzymes were determined and compared. Wild-type and mutant MAO B cDNAs were transiently transfected into COS-7 cells by electroporation. Cells were harvested during late log phase growth and resuspended to a concentration of 3.125×10^6 cells/ml in DMEM supplemented with 10% fetal bovine serum (FBS). Fifteen μg of normal or mutant cDNA were added to 0.8 ml (2.5×10^6 cells) of cell suspension. Electroporation was carried out in a Bio-Rad Gene Pulser with a setting of 0.25 kV and 500 μF. Cells were resuspended in 15 ml of DMEM/FBS and incubated at 37° C. with 5% CO2 for 48 h.
(§2) Aliquots (20 μl) of transfected COS-7 cell homogenates were incubated for 10 min at 37° C. in the presence of various concentrations of [^14C]PEA (20 mCi/mmol) or [^14C]benzylamine (10 mCi/mmol) in 50 mM sodium phosphate buffer, pH 7.5 (200 μl total volume). Substrate concentrations ranged from 0.25-2.5 times the Km value (determined in pilot experiments) to yield 10 equally-spaced reciprocal increments. Parallel assays were carried out with untransfected COS-7 cell lysates as a control. Reactions were stopped by addition of 25 μl of 6 N HCl and the deaminated products were extracted by vortexing for 30 seconds with 500 μl of toluene or toluene:ethyl acetate (1:1) for benzylamine or PEA, respectively. Samples were processed as described previously (28). Apparent Km and Vmax values were determined by linear regression analysis of Lineweaver-Burk plots. Kcat values were calculated from the Vmax values divided by the concentration of wild-type or mutant MAO B determined in each experiment. Expression levels of wild-type or mutant MAO B were determined in triplicate for six separate experiments as follows: wild-type=11.1+2.07; F423A=9.30+1.89; E427Q=10.3+1.29; T428A=10.2+2.07; T428S=10.2+1.53 pmol MAO B/mg protein. Data are given as means +S.E.M. pmol/mg of protein determined using a subunit molecular weight of 58,800.

MAO B [2] = experiment: pH profiles of wild-type and mutant MAO B enzymatic activity with [14C]benzylamine; type: biochemical, human; conditions: pH 6.0 to 9.0, 500 μM benzylamine
Procedure: (§3) Aliquots (20 μl) of transfected COS-7 cell homogenates were incubated for 10 min at 37° C. in the presence of 500 μM (^14C)benzylamine (2.5 mCi/mmol) in 50 mM sodium phosphate buffer, pH 6.0, 6.5, 7.0, 7.5, 8.0, 8.5 or 9.0 (200 μl total volume). Reactions were stopped by addition of 25 μl of 6 N HCl. Parallel assays were carried out with untransfected COS-7 homogenates as a control. Samples were processed as previously described (28) and the derived specific activity values (nmol/min·mg protein) were divided by wild-type or mutant MAO B concentration, determined for each experiment, to obtain enzymatic activity values (nmol/min·m g MAO B). Enzymatic activities were determined in duplicate for three separate experiments.
(§4) To examine the possibility that the mutation effects a proton-dependent step in the reaction, the enzymatic activity of the mutant and wild-type MAO B enzymes was determined at different pH values from 6.0 to 9.0 (FIG. 4).

MAO B [3] = experiment: Kinetic analysis of wild-type and mutant MAO B with [14C]PEA substrate (transfected COS-7 cell homogenates); type: biochemical, human; conditions: PEA substrate; for Kcat / Km / Vmax: pH 7.5, 37° C., apparent, mean + S.E.M., n=3; for activity relative to wild-type: activity too low to determine kinetic parameters
Procedure: as §1, §2

COS-7 cells = experiment: Expression levels of wild-type or mutant MAO B in transfected COS-7 cells; conditions: transiently transfected COS-7 cells, triplicate, six experiments, mean + S.E.M., subunit molecular weight 58,800
Procedure: as §1, §2

MAO B [4] = target: T1, MAO B; experiment: pH profiles of wild-type and mutant MAO B enzymatic activity with [14C]benzylamine; type: biochemical; conditions: pH 6.0 to 9.0, 500 μM benzylamine
Procedure: as §3, §4

Molecule	Kcat (MAO B [1])	Km (MAO B [1]) [µM]	Vmax (MAO B [1])	pH profile of enzymatic activity (MAO B [2])	Kcat (MAO B [3])	Km (MAO B [3]) [µM]	Vmax (MAO B [3])	Expression level (COS-7 cells)	Km compared with wild-type (MAO B [1])	Kcat reduced by (MAO B [1]) [%]	Kcat relative to wild-type (reduction) (MAO B [3])	activity relative to wild-type (MAO B [1])	activity relative to wild-type (MAO B [1]; listed as E427Q) [% wt]	activity relative to wild-type (MAO B [4])	activity relative to wild-type (MAO B [3])	activity relative to wild-type (MAO B [3]; listed as E427Q) [% wt]
WT: wild-type human MAO B enzyme expressed from cDNA in pSVK3 in COS-7 cells (protein, UniProt P27338 2-520, looked up) Amine oxidase …: SNKCDVVVVGGGISGMAAAKLLHDSGLNVVVLEARDRVGGRTYTLRNQKVKYVDLGGSYVGPTQNRILRLAKELGLETYKVNEVERLIHHVKGKSYPFRGPFPPVWNPITYLDHNNFWRTMDDMGREIPSDAPWKAPLAEEWDNMTMKELLDKLCWTESAKQLATLFVNLCVTAETHEVSALWFLWYVKQCGGTTRIISTTNGGQERKFVGGSGQVSERIMDLLGDRVKLERPVIYIDQTRENVLVETLNHEMYEAKYVISAIPPTLGMKIHFNPPLPMMRNQMITRVPLGSVIKCIVYYKEPFWRKKDYCGTMIIDGEEAPVAYTLDDTKPEGNYAAIMGFILAHKARKLARLTKEERLKKLCELYAKVLGSLEALEPVHYEEKNWCEEQYSGGCYTTYFPPGILTQYGRVLRQPVDRIYFAGTETATHWSGYMEGAVEAGERAAREILHAMGKIPEDEIWQSEPESVDVPAQPITTTFLERHLPSVPGLLRLIGLTTIFSATALGFLAHKRGLLVRV	83.0 + 14.4 min^−1	19.3	0.879 + 0.19 nmol/min · mg protein	characteristic increase in activity with increasing pH	29.8 + 5.0 min^−1	3.38	0.325 + 0.008 nmol/min · mg protein	11.1+2.07 pmol MAO B/mg protein	–	–	–	–	–	–	–	–
T428 A: human MAO B mutant, Thr428 changed to Ala (protein, UniProt P27338 2-520, looked up, variant T428A) Amine oxidase …: SNKCDVVVVGGGISGMAAAKLLHDSGLNVVVLEARDRVGGRTYTLRNQKVKYVDLGGSYVGPTQNRILRLAKELGLETYKVNEVERLIHHVKGKSYPFRGPFPPVWNPITYLDHNNFWRTMDDMGREIPSDAPWKAPLAEEWDNMTMKELLDKLCWTESAKQLATLFVNLCVTAETHEVSALWFLWYVKQCGGTTRIISTTNGGQERKFVGGSGQVSERIMDLLGDRVKLERPVIYIDQTRENVLVETLNHEMYEAKYVISAIPPTLGMKIHFNPPLPMMRNQMITRVPLGSVIKCIVYYKEPFWRKKDYCGTMIIDGEEAPVAYTLDDTKPEGNYAAIMGFILAHKARKLARLTKEERLKKLCELYAKVLGSLEALEPVHYEEKNWCEEQYSGGCYTTYFPPGILTQYGRVLRQPVDRIYFAGTEAATHWSGYMEGAVEAGERAAREILHAMGKIPEDEIWQSEPESVDVPAQPITTTFLERHLPSVPGLLRLIGLTTIFSATALGFLAHKRGLLVRV	46.2 + 19.1 min^−1	18.6	0.374 + 0.06 nmol/min · mg protein	–	14.3 + 2.6 min^−1	11.1	0.161 + 0.039 nmol/min · mg protein	10.2+2.07 pmol MAO B/mg protein	approximately equal to wild-type	44	~50 % of wild-type	–	–	–	–	–
E427 Q: human MAO B mutant, Glu427 changed to Gln (protein, UniProt P27338 2-520, looked up, variant E427Q) Amine oxidase …: SNKCDVVVVGGGISGMAAAKLLHDSGLNVVVLEARDRVGGRTYTLRNQKVKYVDLGGSYVGPTQNRILRLAKELGLETYKVNEVERLIHHVKGKSYPFRGPFPPVWNPITYLDHNNFWRTMDDMGREIPSDAPWKAPLAEEWDNMTMKELLDKLCWTESAKQLATLFVNLCVTAETHEVSALWFLWYVKQCGGTTRIISTTNGGQERKFVGGSGQVSERIMDLLGDRVKLERPVIYIDQTRENVLVETLNHEMYEAKYVISAIPPTLGMKIHFNPPLPMMRNQMITRVPLGSVIKCIVYYKEPFWRKKDYCGTMIIDGEEAPVAYTLDDTKPEGNYAAIMGFILAHKARKLARLTKEERLKKLCELYAKVLGSLEALEPVHYEEKNWCEEQYSGGCYTTYFPPGILTQYGRVLRQPVDRIYFAGTQTATHWSGYMEGAVEAGERAAREILHAMGKIPEDEIWQSEPESVDVPAQPITTTFLERHLPSVPGLLRLIGLTTIFSATALGFLAHKRGLLVRV	–	–	–	essentially independent of pH	–	–	–	10.3+1.29 pmol MAO B/mg protein	–	–	–	(<5% wt)	< 5	< 5 % of wild-type	(<5% wt)	< 5
T428 S: human MAO B mutant, Thr428 changed to Ser (protein, UniProt P27338 2-520, looked up, variant T428S) Amine oxidase …: SNKCDVVVVGGGISGMAAAKLLHDSGLNVVVLEARDRVGGRTYTLRNQKVKYVDLGGSYVGPTQNRILRLAKELGLETYKVNEVERLIHHVKGKSYPFRGPFPPVWNPITYLDHNNFWRTMDDMGREIPSDAPWKAPLAEEWDNMTMKELLDKLCWTESAKQLATLFVNLCVTAETHEVSALWFLWYVKQCGGTTRIISTTNGGQERKFVGGSGQVSERIMDLLGDRVKLERPVIYIDQTRENVLVETLNHEMYEAKYVISAIPPTLGMKIHFNPPLPMMRNQMITRVPLGSVIKCIVYYKEPFWRKKDYCGTMIIDGEEAPVAYTLDDTKPEGNYAAIMGFILAHKARKLARLTKEERLKKLCELYAKVLGSLEALEPVHYEEKNWCEEQYSGGCYTTYFPPGILTQYGRVLRQPVDRIYFAGTESATHWSGYMEGAVEAGERAAREILHAMGKIPEDEIWQSEPESVDVPAQPITTTFLERHLPSVPGLLRLIGLTTIFSATALGFLAHKRGLLVRV	27.2 + 5.8 min^−1	5.4	0.236 + 0.05 nmol/min · mg protein	–	14.5 + 2.0 min^−1	11.6	0.162 + 0.22 nmol/min · mg protein	10.2+1.53 pmol MAO B/mg protein	approximately equal to wild-type	67	~50 % of wild-type	–	–	–	–	–
